Data from PMC9482650, “Quantitative fragmentomics allow affinity mapping of interactomes” (Nature Communications, 2022).

T1: ARHGAP21, Q5T5U3
T1 sequence (Q5T5U3 45-169, limits assumed, looked up): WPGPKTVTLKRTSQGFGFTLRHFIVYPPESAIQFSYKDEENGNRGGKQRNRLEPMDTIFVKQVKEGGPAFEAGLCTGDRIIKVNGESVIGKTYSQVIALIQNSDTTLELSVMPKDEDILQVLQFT

T2: DLG3_3, Q92796
T2 sequence (Q92796 374-475, limits assumed, looked up): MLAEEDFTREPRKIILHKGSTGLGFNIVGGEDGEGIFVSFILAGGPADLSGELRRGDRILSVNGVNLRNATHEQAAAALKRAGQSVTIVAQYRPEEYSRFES

T3: APBA2_2, Q99767
T3 sequence (Q99767 654-744, limits assumed, looked up): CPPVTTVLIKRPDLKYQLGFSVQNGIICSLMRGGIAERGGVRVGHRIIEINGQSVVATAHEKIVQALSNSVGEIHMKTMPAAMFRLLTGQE

T4: LRRC7, Q96NW7
T4 sequence (Q96NW7 1440-1537, limits assumed, looked up): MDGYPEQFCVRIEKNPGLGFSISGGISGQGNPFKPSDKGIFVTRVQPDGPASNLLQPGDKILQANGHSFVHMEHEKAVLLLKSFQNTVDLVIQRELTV

T5: PCLO, Q9Y6V0
T5 sequence (Q9Y6V0 4491-4600, limits assumed, looked up): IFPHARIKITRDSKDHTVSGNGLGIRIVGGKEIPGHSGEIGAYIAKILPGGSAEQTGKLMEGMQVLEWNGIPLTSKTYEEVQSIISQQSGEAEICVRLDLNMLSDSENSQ

T6: LNX2_3, Q8N448
T6 sequence (Q8N448 463-564, limits assumed, looked up): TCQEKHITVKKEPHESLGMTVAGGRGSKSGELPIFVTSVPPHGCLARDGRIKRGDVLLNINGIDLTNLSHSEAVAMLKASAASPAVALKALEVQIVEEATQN

T7: SHANK1, Q9Y566
T7 sequence (Q9Y566 658-767, limits assumed, looked up): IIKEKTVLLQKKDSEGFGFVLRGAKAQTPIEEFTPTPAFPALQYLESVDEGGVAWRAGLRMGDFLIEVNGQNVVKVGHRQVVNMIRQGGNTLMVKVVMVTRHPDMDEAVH

T8: SYNJ2BP, P57105
T8 sequence (P57105 8-110, limits assumed, looked up): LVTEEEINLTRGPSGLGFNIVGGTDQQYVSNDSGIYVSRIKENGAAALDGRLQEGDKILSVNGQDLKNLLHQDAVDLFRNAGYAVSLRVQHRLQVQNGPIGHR

T9: PARD3B_1, Q8TEW8
T9 sequence (Q8TEW8 196-299, limits assumed, looked up): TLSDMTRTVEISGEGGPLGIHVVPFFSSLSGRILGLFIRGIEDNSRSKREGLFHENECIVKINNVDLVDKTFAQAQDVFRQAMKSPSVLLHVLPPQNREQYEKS

T10: HTRA4, P83105
T10 sequence (P83105 378-476, limits assumed, looked up): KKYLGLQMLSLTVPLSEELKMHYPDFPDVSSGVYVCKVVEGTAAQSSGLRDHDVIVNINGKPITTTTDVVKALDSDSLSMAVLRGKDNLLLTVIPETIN


Assays:
Assay in all cases: holdup assay
Design in all cases: key: below the threshold = too weak to quantify, mostly under pKd 3.1 to 4
Conditions in all cases: plain residues with an end cap or a label only (N-terminal biotin on a linker: ttds)
[1] = biological target: DLG2_3, Q15700
[2] = biological target: IL16_3, Q14005
[3] = biological target: T1, ARHGAP21, Q5T5U3
[4] = biological target: Inadl_6, Q8NI35
[5] = biological target: T2, DLG3_3, Q92796
[6] = biological target: MAGI1_2, Q96QZ7
[7] = biological target: MAGI2_4, Q86UL8
[8] = biological target: LNX1_3, Q8TBB1
[9] = biological target: FRMPD2_3, Q68DX3
[10] = biological target: T3, APBA2_2, Q99767
[11] = biological target: IL16_4, Q14005
[12] = biological target: GORASP2, Q9H8Y8
[13] = biological target: T4, LRRC7, Q96NW7
[14] = biological target: NOS1, P29475
[15] = biological target: T5, PCLO, Q9Y6V0
[16] = biological target: Inadl_4, Q8NI35
[17] = biological target: Inadl_9, Q8NI35
[18] = biological target: MAGI1_1, Q96QZ7
[19] = biological target: T6, LNX2_3, Q8N448
[20] = biological target: GOPC, Q9HD26
[21] = biological target: FRMPD4, Q14CM0
[22] = biological target: NHERF4_2, Q86UT5
[23] = biological target: T7, SHANK1, Q9Y566
[24] = biological target: T8, SYNJ2BP, P57105
[25] = biological target: MAGI3_2, Q5TCQ9
[26] = biological target: T9, PARD3B_1, Q8TEW8
[27] = biological target: T10, HTRA4, P83105

NHERF4_2, Q86UT5, sequence (Q86UT5 220-308): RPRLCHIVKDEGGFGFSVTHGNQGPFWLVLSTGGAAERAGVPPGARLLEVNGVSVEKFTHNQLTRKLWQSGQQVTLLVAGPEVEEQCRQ
MAGI3_2, Q5TCQ9, sequence (Q5TCQ9 398-503): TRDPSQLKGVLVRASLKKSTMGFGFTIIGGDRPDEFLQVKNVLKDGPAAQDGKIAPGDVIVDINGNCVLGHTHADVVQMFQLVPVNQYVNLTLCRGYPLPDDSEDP
FRMPD4, Q14CM0, sequence (Q14CM0 67-160): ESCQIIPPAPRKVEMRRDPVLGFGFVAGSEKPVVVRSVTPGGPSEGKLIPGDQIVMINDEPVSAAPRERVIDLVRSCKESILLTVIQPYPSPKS
Inadl_6, Q8NI35, sequence (Q8NI35 1058-1167): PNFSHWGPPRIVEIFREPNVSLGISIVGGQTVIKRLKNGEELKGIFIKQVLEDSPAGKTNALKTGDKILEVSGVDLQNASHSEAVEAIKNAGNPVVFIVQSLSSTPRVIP
MAGI2_4, Q86UL8, sequence (Q86UL8 772-865): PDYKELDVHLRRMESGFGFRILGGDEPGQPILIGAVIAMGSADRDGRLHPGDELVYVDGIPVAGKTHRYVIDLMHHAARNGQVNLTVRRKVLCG
IL16_4, Q14005, sequence (Q14005 1229-1329): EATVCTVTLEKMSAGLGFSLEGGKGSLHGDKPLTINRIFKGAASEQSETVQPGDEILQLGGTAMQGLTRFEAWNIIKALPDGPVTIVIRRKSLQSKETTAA
LNX1_3, Q8TBB1, sequence (Q8TBB1 500-596): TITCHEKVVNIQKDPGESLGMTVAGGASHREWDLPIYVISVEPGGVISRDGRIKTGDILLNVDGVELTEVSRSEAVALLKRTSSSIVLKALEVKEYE
Inadl_4, Q8NI35, sequence (Q8NI35 547-651): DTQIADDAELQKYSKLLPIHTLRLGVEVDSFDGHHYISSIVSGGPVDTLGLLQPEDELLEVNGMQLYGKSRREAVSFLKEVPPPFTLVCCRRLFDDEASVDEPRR
MAGI1_2, Q96QZ7, sequence (Q96QZ7 456-580): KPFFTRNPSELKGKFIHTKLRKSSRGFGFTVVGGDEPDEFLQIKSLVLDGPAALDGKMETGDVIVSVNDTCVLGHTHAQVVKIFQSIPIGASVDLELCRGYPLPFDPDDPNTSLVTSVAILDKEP
IL16_3, Q14005, sequence (Q14005 1107-1207): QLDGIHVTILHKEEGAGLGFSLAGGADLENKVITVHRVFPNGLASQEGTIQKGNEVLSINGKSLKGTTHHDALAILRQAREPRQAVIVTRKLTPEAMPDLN
MAGI1_1, Q96QZ7, sequence (Q96QZ7 1-106): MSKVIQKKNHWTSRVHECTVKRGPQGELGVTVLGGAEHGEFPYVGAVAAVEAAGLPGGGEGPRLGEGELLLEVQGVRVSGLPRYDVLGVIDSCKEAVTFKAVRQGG
NOS1, P29475, sequence (P29475 9-101): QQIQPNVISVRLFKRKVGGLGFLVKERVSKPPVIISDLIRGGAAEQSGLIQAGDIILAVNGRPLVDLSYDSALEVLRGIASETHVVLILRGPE
Inadl_9, Q8NI35, sequence (Q8NI35 1530-1615): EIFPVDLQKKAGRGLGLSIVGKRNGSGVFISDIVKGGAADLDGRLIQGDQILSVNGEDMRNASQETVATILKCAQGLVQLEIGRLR
FRMPD2_3, Q68DX3, sequence (Q68DX3 1073-1166): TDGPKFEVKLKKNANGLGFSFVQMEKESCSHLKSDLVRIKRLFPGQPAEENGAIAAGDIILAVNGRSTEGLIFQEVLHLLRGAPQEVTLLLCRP

| pKd [1] | pKd [2] | pKd [3] | pKd [4] | pKd [5] | pKd [6] | pKd [7] | pKd [8] | pKd [9] | pKd [10] | pKd [11] | pKd [12] | pKd [13] | pKd [14] | pKd [15] | pKd [16] | pKd [17] | pKd [18] | pKd [19] | pKd [20] | Binder | further results |
| --- | --- | --- | --- | --- | --- | --- | --- | --- | --- | --- | --- | --- | --- | --- | --- | --- | --- | --- | --- | --- | --- |
| 4.54 | below the threshold | below the threshold | below the threshold | 4.23 | 3.65 | 4.02 | below the threshold | below the threshold | below the threshold | below the threshold | 3.97 | below the threshold | 3.88 | below the threshold | below the threshold | below the threshold | below the threshold | below the threshold | below the threshold | GRLLGLETNV [ARHGEF26, Q96DR7] | pKd [21]: below the threshold; pKd [22]: below the threshold; pKd [23]: below the threshold; pKd [24]: 4.86; pKd [25]: 4.68; pKd [26]: below the threshold; pKd [27]: below the threshold |
| 4.65 | below the threshold | below the threshold | below the threshold | 4.32 | 4 | below the threshold | below the threshold | below the threshold | below the threshold | below the threshold | 3.74 | below the threshold | 3.53 | below the threshold | below the threshold | below the threshold | below the threshold | below the threshold | below the threshold | QRPYRRESEI [KCNJ12, Q14500] | pKd [21]: below the threshold; pKd [22]: below the threshold; pKd [23]: below the threshold; pKd [24]: 5.17; pKd [25]: 4.75; pKd [26]: below the threshold; pKd [27]: below the threshold |
